B1: Recombinant human endostatin produced in HEK 293-EBNA cells (wild type) (domain or fragment, UniProt P39060 1572-1754, looked up)
chain: HSHRDFQPVLHLVALNSPLSGGMRGIRGADFQCFQQARAVGLAGTFRAFLSSRLQDLYSIVRRADRAAVPIVNLKDELLFPSWEALFSGSEGPLKPGARIFSFDGKDVLRHPTWPQKSVWHGSDPNGRRLTESYCETWRTEAPSATGQASSLLGGRLLGQSAASCHHAYIVLCIENSFMTASK
B2: Recombinant human transglutaminase-2 (enzyme, UniProt P21980 1-687, looked up)
chain: MAEELVLERCDLELETNGRDHHTADLCREKLVVRRGQPFWLTLHFEGRNYEASVDSLTFSVVTGPAPSQEAGTKARFPLRDAVEEGDWTATVVDQQDCTLSLQLTTPANAPIGLYRLSLEASTGYQGSSFVLGHFILLFNAWCPADAVYLDSEEERQEYVLTQQGFIYQGSAKFIKNIPWNFGQFEDGILDICLILLDVNPKFLKNAGRDCSRRSSPVYVGRVVSGMVNCNDDQGVLLGRWDNNYGDGVSPMSWIGSVDILRRWKNHGCQRVKYGQCWVFAAVACTVLRCLGIPTRVVTNYNSAHDQNSNLLIEYFRNEFGEIQGDKSEMIWNFHCWVESWMTRPDLQPGYEGWQALDPTPQEKSEGTYCCGPVPVRAIKEGDLSTKYDAPFVFAEVNADVVDWIQQDDGSVHKSINRSLIVGLKISTKSVGRDEREDITHTYKYPEGSSEEREAFTRANHLNKLAEKEETGMAMRIRVGQSMNMGSDFDVFAHITNNTAEEYVCRLLLCARTVSYNGILGPECGTKYLLNLNLEPFSEKSVPLCILYEKYRDCLTESNLIKVRALLVEPVINSYLLAERDLYLENPEIKIRILGEPKQKRKLVAEVSLQNPLPVALEGCTFTVEGAGLTEEQKTVEIPDPVEAGEEVKVRMDLLPLHMGLHKLVVNFESDKLKAVKGFRNVIIGPA

How the values were obtained:
[1] = molecular target: Recombinant human endostatin produced in HEK 293-EBNA cells (wild type) (human) (UniProt P39060); experiment: SPR
[2] = molecular target: Recombinant human endostatin expressed in Pichia pastoris (human) (UniProt P39060); experiment: SPR
[3] = molecular target: NC1(XVIII) domain R27A/R139A double mutant (human); experiment: ELISA
[4] = molecular target: B2; experiment: SPR
[5] = molecular target: B1; experiment: ELISA

Molecule “Guinea pig TG-2 extracted from liver (enzyme)” has a Kd [1] of 6.8 nM, a koff [1] of 0.000765 s⁻¹ and a kon [1] of 112000 M⁻¹ s⁻¹. It also gave a percent inhibition of binding by 1 mM GTP [1] of 96.7%, a Kd [2] of 5.59 nM and a koff [2] of 0.000341 s⁻¹.

Work on “Recombinant human transglutaminase-2 (from UniProt P21980 1-687) (enzyme)” yielded a percent of the binding of the wild type NC1 domain [3] of 31%.

B1: binds [4].

With B2 the “fold increase of binding with 8 mM CaCl2 against no cation” value [5] was ~38 fold, the “fold increase of binding with 8 mM MgCl2 against no cation” value [5] was ~2 fold and the “fold increase of binding with 8 mM MnCl2 against no cation” value [5] was ~10 fold.
